Measured values: US10653749B2, “Targeting GIV-GEF-GI signaling for treating diverse diseases” (The Regents of the University of California, priority 2015, dated 2020)
Entries after “also recorded” stand apart in the source; their conditions may differ.

Legend:
[1] = test system: 6-mm punch biopsy dermal wounds; assay: Dermal wound healing in mice, topical TAT proteins; format: in vivo; settings: for wound healing: topical 15 μg (~500 pmol) every 24 h for 8 d, vs TAT control
Procedure: Under general anesthesia, two 6-mm diameter punch biopsy wounds were created on the shaved dorsal surface of 8 wk old female C56BL/6 wild-type mice under sterile conditions. Wounds were then treated with 15 μg (˜500 pmol) of TAT proteins every 24 h for 8 d after injury, and photographed every 48 h over that period, and wound area was manually traced by placing a transparent film over the wound and tracing the outline with a permanent marker. To measure the wound area, the edges of the dermis were determined as the wound edge. […] The tracing was then scanned and measured using an image analysis program (NIH Image J Software). Five mice, each with 2 wounds (a total of 10 wounds) were studied in each treatment arm, and their rate of closure was analyzed. These studies were carried out in a blinded manner such that aliquots of purified TAT proteins were prepared and color coded before their arrival at the animal facility. Consequently, the personnel who performed dermal punch biopsies, daily treatment with TAT proteins, photography and measurement of wound area was blinded to the identity of the compound. The study protocol (FIG. 4B) included standard wound care as per IACUC guidelines.

[2] = test system: EGFR autophosphorylation and Akt signaling; assay: EGF signaling in TAT-transduced HeLa cells by immunoblotting; format: cell-based; settings: 50 nM EGF; for EGFR autophosphorylation: pY1068
Procedure: For immunoblotting, protein samples were separated by SDS/PAGE and transferred to PVDF membranes (Millipore). Membranes were blocked with PBS supplemented with 5% nonfat milk (or with 5% BSA when probing for phosphorylated proteins) before incubation with primary antibodies. Infrared imaging with two-color detection and quantification were performed using a Li-Cor Odyssey imaging system (50, 52, 53). Primary antibodies were diluted as follows: anti-His 1:1,000; anti-GIV/Girdin (T-13) 1:500; antiphospho EGFR 1068 (1:1000); anti-phospho-Akt (Ser473) 1:250; anti-Akt 1:500; anti-Gαi3 1:333; anti-pan-GP 1:250; anti-α tubulin 1: 2,000. All Odyssey images were processed using Image J software (NIH) and assembled for presentation using Photoshop and Illustrator software (Adobe).
For TAT-protein transduction, cells were incubated with 400-800 nM of the TAT-proteins for 30 min at 37° C. prior to three washes with PBS and addition of fresh growth media. For analysis of EGF signaling, subconfluent monolayers of HeLa cells were treated with TAT proteins for 30 min, washed with PBS, and subsequently stimulated with EGF (50 nM) at 4 h after TAT transduction. For scratch-wound assays, HeLa monolayers were treated with TAT proteins before and at 12 h after wounding. For cancer cell invasion assays, highly invasive MDA MB 231 breast cancer cells were plated in 6-well dishes, treated with TAT-peptides for 30 min and subsequently lifted and placed in transwell chamber in the presence of serum-free media. For L×2 myofibroblast activation assays, cells were first treated with TAT-proteins for 30 min, starved in serum-free media, and subsequently treated with 1.5 ng/ml TGF-β for 24 h. TAT-protein transduction was repeated every 8 h during the course of TGFβ stimulation (total 3 treatments). For assays involving insulin stimulation of TAT-treated L6 myotubes, such stimulation was carried out 90 min after transduction. In each case, whole cell lysates prepared from cells in duplicate wells were analyzed for signaling pathways and TAT-protein uptake by immunoblotting.

HeLa cells = assay: Scratch-wound 2D cell migration assay; format: cell-based; settings: compared to mock treatment, 12 h and 24 h
Procedure: Scratch-wound assays were done as described (49). Briefly, monolayer cultures (100% confluent) of HeLa cells were incubated first in a 0.2% serum media over night. The following morning, monolayers of HeLa cells were first transduced with TAT peptides for 30 min, then washed three times with PBS and placed again in a 0.2% serum media for 1 h 30 min before scratch-wounding. The wounds were created using a 20 μL pipette tip. Transduction with TAT peptides was repeated at 12 h into the wound healing assay (a total of two times). Healing wounds were monitored by phase-contrast microscopy over the next 24 h and serially photographed using a Canon digital SLR camera. To quantify cell migration (expressed as percent of wound closure) the acquired images were analyzed using Image J software to measure open wound area. Results were expressed as % closure by calculating the difference between the wound area at 0 h, 12 h and that at 24 h divided by the area at 0 h×100. Invasion assays were performed using Corning Transwell plates according to the manufacturer's protocol.
Scratch-wound assays were done as described previously (13). […] Healing wounds were monitored by phase-contrast microscopy over the next 24 h and migration index was quantified (expressed as % wound closure) by measuring the wounded area using Image J software.

B1: TAT-GIV-CT-WT: Recombinant cell-permeable fusion of TAT-PTD, His and HA tags, linker and human GIV C-terminus (aa 1660-1870), wild type; SEQ ID NO: 2 (protein)
chain: MRGSHHHHHHGMASMTGGQQMGRDLYDDDDKDRWGSKLGYGRKKRRQRRRGGSTMSGYPYDVPDYAGSMGGSGHSGETLESRHHKIKTGSPGSEVVTLQQFLEESNKLTSVQIKSSSQENLLDEVMKSLSVSSDFLGKDKPVSCGLARSVSGKTPGDFYDRRTTKPEFLRPGPRKTEDTYFISSAGKPTPGTQGKIKLVKESSLSRQSKDSNPYATLPRASSVISTAEGTTRRTSIHDFLTKDSRLPISVDSPPAAADSNTTAASNVDKVQESRNSKSRSREQQSS
[1]; topical 500 pmol daily
  rate of wound healing relative to TAT-treated controls: ~2 × the rate
  time of wound healing relative to TAT-treated controls: a day earlier
[1]
  wound healing: accelerated wound healing; also recorded: accelerates
[2]
  Akt signaling (phosphorylation at Ser 473): enhances
  EGFR autophosphorylation: enhances
HeLa cells
  2D-migration and wound closure: enhances

B2: TAT-GIV-CT-FA: GEF-deficient F1685A mutant of the TAT-GIV-CT peptide, dominant-negative; SEQ ID NO: 3 (protein)
chain: MRGSHHHHHHGMASMTGGQQMGRDLYDDDDKDRWGSKLGYGRKKRRQRRRGGSTMSGYPYDVPDYAGSMGGSGHSGETLESRHHKIKTGSPGSEVVTLQQALEESNKLTSVQIKSSSQENLLDEVMKSLSVSSDFLGKDKPVSCGLARSVSGKTPGDFYDRRTTKPEFLRPGPRKTEDTYFISSAGKPTPGTQGKIKLVKESSLSRQSKDSNPYATLPRASSVISTAEGTTRRTSIHDFLTKDSRLPISVDSPPAAADSNTTAASNVDKVQESRNSKSRSREQQSS
[1]; listed as FA
  wound healing: delayed wound healing; also recorded: retards
[2]
  Akt signaling (phosphorylation at Ser 473): inhibited; also recorded: suppresses
  EGFR autophosphorylation: inhibited; also recorded: suppresses
HeLa cells; listed as FA
  2D-migration and wound closure: delayed wound closure and not
